Measurements: US20070059799A1
No end group written: not given here.

Target: HLA-A*0201 (human)
Test: competition with 125I-labelled standard peptide for purified HLA, gel filtration
Settings: not given

Binder	binding affinity ratio (IC50 of standard peptide / IC50 of test peptide)
IVGLLGFAA (modifications not checked) [HBV POL 625 peptide …]	0.0009
ILLLCLIFLLV (modifications not checked) [HBV ENV 249 peptide …]	0.0056
AICSVVRRA (modifications not checked) [HBV POL 521 peptide …]	0.0001
CLIFLLVL (modifications not checked) [HBV ENV 253 peptide CLIFLLVL]	0.0002
CLGWLWGMDI (modifications not checked) [HBV NUC 23 peptide …]	0.0093
CIPIPSSWA (modifications not checked) [HBV ENV 312 peptide …]	0.001
ILLLCLIFL (modifications not checked) [HBV ENV 249 peptide … (9-mer, as printed)]	0.0015
CLAFSYMDDV (modifications not checked) [HBV POL 533 peptide …]	0.0008

Same assay, conditions: remark: other sources report otherwise

Binder	binding affinity ratio (IC50 of standard peptide / IC50 of test peptide)
AMSTTDLEA (modifications not checked) [HBV X 102 peptide …]	0.0013

Target: HLA-A*0301 (human)
Test: not given
Settings: not given

Binder	binding affinity ratio (IC50 of standard peptide / IC50 of test peptide)
GLLGFAAPF (modifications not checked) [HBV POL 627 peptide …]	0.0006
CLIFLLVLLDY (modifications not checked) [HBV ENV 253 …]	0.0083
RAFPHCLAF (modifications not checked) [HBV POL 528 peptide …]	0.0015
YLPLDKGIKPY (modifications not checked) [… (HBV POL 122)]	-0.0004
VVRRRGRSPR (modifications not checked) [HBV NUC 177 peptide […] (as printed)]	0.0027
SVVLSRKY (modifications not checked) [HBV POL 739 SVVLSRKY]	-0.0002
TSAICSVVRR (modifications not checked) [HBV POL 519 …]	0.0018
LSTLPETTVVR (modifications not checked) [HBV NUC 169 …]	-0.0009
WLSLDVSAAFY (not fully specified) [[…] (HBV POL 414)]	0.0034
LSWLSLDVSA (modifications not checked) [HBV POL 412 …]	0.0048
RSPRRRTPSPR (modifications not checked) [HBV NUC 163 peptide …]	-0.0007

Target: HLA-A*0301 (human)
Test: not given
Settings: not given
Remark: another data set of the same source

Binder	binding affinity ratio (IC50 of standard peptide / IC50 of test peptide)
NLNVSIPWTHK (modifications not checked) [HBV POL 45 …]	-0.0009
NSVVLSRK (modifications not checked) [HBV POL 738 NSVVLSRK]	0.0006
RTPSPRRR (modifications not checked) [HBV NUC 188 RTPSPRRR]	-0.0002
SSAGPCALRF (modifications not checked) [HBV X 64 …]	-0.0003
NLEDPASR (modifications not checked) [HBV NUC 75 NLEDPASR]	-0.0002
LTVNEKRR (modifications not checked) [HBV POL 99 LTVNEKRR]	-0.0002
SAGPCALRF (modifications not checked) [HBV X 65 …]	-0.0003
LVVDFSQF (modifications not checked) [HBV POL 377 LWDFSQF]	0.0016
SALNPADDPSR (modifications not checked) [HBV POL 771 …]	-0.0004
LVPFVQWF (modifications not checked) [HBV ENV 339 LVPFVQWF]	0.0028

Same assay, conditions: remark: other sources report otherwise

Binder	binding affinity ratio (IC50 of standard peptide / IC50 of test peptide)
SAGPCALR (modifications not checked) [HBV X 65 SAGPCALR]	-0.0002
SAICSVVR (modifications not checked) [HBV POL 520 SAICSVVR]	-0.0002

Target: HLA-A*3101 (human)
Test: competition with 125I-labelled probe peptide for purified HLA, gel filtration
Settings: not given

Binder	binding affinity ratio (IC50 of standard peptide / IC50 of test peptide)
GIHLNPNKTK (modifications not checked) [HBV POL 567 peptide …]	0.0009

Same assay, conditions: remark: other sources report otherwise

Binder	IC50 [nM]
KVFVLGGCR (modifications not checked) [peptide 1.0993 (HBV X 130, …)]	30
FVLGGCRHK (modifications not checked) [peptide 1.0219 (HBV X 1550, …)]	1500
SSAGPCALR (modifications not checked) [peptide 26.0153 (HBV X 64, …)]	55

Target: HLA-A*3301 (human)
Test: as above
Settings: not given

Binder	binding affinity ratio (IC50 of standard peptide / IC50 of test peptide)
GIHLNPNKTK (modifications not checked) [HBV POL 567 peptide …]	0.0009

Target: HLA-A*0201 (human)
Test: not given
Settings: not given

Binder	binding affinity ratio (IC50 of standard peptide / IC50 of test peptide)
NLLSSNLSWL (modifications not checked) [HBV POL 406 peptide …]	0.0016
LIFLLVLL (modifications not checked) [HBV ENV 254 LIFLLVLL]	0.0025
NLGNLNVSI (modifications not checked) [HBV POL 42 peptide …]	0.0047
FLFILLLCL (modifications not checked) [HBV ENV 246 9-mer …]	0.0002
LLDYQGML (modifications not checked) [HBV ENV 260 LLDYQGML]	0.0004
LLTRILTI (modifications not checked) [HBV ENV 184 LLTRILTI]	0.0026
LVSFGVWI (modifications not checked) [HBV NUC 119 peptide LVSFGVWI]	0.0004
DLNLGNLNV (modifications not checked) [HBV POL 40 9-mer …]	0.0004
LLGCAANWI (modifications not checked) [HBV POL 752 …]	0.0011
FIIFLFIL (modifications not checked) [HBV ENV 243 8-mer FIIFLFIL]	0.0006
